Measured values published in article PMC5493754, “Myosin 7 and its adaptors link cadherins to actin” (Nature Communications, 2017).
Changes are numbered by the printed parent chain. Names may count otherwise.

T1: YFP-Full length (FL)-harmonin (harmonin-a1) (human, UniProt Q9Y6N9-1 1-552)
T1 construct: Harmonin-a1 (USH1C), human, residues 1-552 of UniProt Q9Y6N9-1; also called ^YFPFL (isoA); ^YFPFL; source: E. coli BL21 (DE3) Rosetta, purified (Glutathione Sepharose 4B, size-exclusion chromatography)
T1 sequence (looked up): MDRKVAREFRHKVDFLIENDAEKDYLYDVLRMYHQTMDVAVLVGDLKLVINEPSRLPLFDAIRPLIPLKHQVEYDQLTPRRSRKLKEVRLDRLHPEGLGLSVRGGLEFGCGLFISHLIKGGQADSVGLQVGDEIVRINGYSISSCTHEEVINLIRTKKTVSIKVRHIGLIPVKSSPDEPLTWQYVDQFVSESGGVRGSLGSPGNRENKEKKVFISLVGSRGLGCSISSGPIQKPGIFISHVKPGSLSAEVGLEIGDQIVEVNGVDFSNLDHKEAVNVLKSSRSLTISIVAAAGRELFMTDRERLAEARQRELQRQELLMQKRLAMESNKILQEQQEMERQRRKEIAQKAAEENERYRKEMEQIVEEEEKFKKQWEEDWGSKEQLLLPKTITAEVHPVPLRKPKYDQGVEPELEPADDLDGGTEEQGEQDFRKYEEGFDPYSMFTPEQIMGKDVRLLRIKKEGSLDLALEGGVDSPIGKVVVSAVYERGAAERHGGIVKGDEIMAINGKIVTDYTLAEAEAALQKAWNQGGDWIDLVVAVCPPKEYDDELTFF

T2: YFP-Myosin 7b MF2 (human, UniProt Q6PIF6 1605-2116)
T2 construct: Myosin 7b, human, MF2, residues 1605-2116 of UniProt Q6PIF6; pET14-YFP vector; also called ^YFPM7b MF2; source: E. coli (BL21-AI, BL21 (DE3) Rosetta or BL21-Gold (DE3)), purified (Histrap, CaptoQ, gel filtration)
T2 sequence (looked up): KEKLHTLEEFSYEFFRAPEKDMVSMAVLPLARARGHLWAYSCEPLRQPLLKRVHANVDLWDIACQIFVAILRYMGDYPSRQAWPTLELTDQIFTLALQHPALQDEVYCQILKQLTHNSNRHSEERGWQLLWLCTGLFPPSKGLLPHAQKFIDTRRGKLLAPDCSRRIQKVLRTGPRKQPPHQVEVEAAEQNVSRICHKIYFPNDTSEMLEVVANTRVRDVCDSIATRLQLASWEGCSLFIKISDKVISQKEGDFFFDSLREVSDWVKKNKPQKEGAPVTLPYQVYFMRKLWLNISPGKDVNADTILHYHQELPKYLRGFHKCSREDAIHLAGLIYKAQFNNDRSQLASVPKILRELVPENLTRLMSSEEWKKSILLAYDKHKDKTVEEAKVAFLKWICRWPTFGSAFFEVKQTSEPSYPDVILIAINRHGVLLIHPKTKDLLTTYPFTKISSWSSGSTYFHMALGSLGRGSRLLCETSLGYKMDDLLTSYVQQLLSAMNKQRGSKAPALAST

B1: Harmonin NPDZ1.PDZ2 (domain or fragment, human, UniProt Q9Y6N9-1 1-301, looked up)
chain: MDRKVAREFRHKVDFLIENDAEKDYLYDVLRMYHQTMDVAVLVGDLKLVINEPSRLPLFDAIRPLIPLKHQVEYDQLTPRRSRKLKEVRLDRLHPEGLGLSVRGGLEFGCGLFISHLIKGGQADSVGLQVGDEIVRINGYSISSCTHEEVINLIRTKKTVSIKVRHIGLIPVKSSPDEPLTWQYVDQFVSESGGVRGSLGSPGNRENKEKKVFISLVGSRGLGCSISSGPIQKPGIFISHVKPGSLSAEVGLEIGDQIVEVNGVDFSNLDHKEAVNVLKSSRSLTISIVAAAGRELFMTDR
notes: Harmonin-a1 (USH1C), human, N-terminal domain, PDZ1 and PDZ2, residues 1-301 of UniProt Q9Y6N9-1; source: E. coli BL21 (DE3) Rosetta, purified (Glutathione Sepharose 4B, size-exclusion chromatography)
B2: Myosin 7b MF2 (domain or fragment, human, UniProt Q6PIF6 1605-2116, looked up)
chain: T2 sequence (looked up)
notes: also called M7b MF2; Myo7b MF2; source: E. coli (BL21-AI, BL21 (DE3) Rosetta or BL21-Gold (DE3)), purified (Histrap, CaptoQ, gel filtration)
B3: Harmonin-a PDZ3c D546R (domain or fragment, human, UniProt Q9Y6N9-1 428-552, looked up)
chain: QDFRKYEEGFDPYSMFTPEQIMGKDVRLLRIKKEGSLDLALEGGVDSPIGKVVVSAVYERGAAERHGGIVKGDEIMAINGKIVTDYTLAEAEAALQKAWNQGGDWIDLVVAVCPPKEYRDELTFF
notes: Harmonin-a1 (USH1C), human, residues 428-552 of UniProt Q9Y6N9-1; also called PDZ3c (isoA) D546R; source: E. coli BL21 (DE3) Rosetta, purified similarly as wild type
B4: YFP-Harmonin-a PDZ3c E469A-I476W (domain or fragment, human, UniProt Q9Y6N9-1 428-552, looked up)
chain: B3 chain with E42A, I49W, R119D
notes: Harmonin-a1 (USH1C), human, residues 428-552 of UniProt Q9Y6N9-1; also called ^YFPPDZ3c (isoA) E469A-I476W; source: E. coli BL21 (DE3) Rosetta, purified similarly as wild type
B5: YFP-Harmonin-a PDZ3c E469A (domain or fragment, human, UniProt Q9Y6N9-1 428-552, looked up)
chain: B3 chain with E42A, R119D
notes: Harmonin-a1 (USH1C), human, residues 428-552 of UniProt Q9Y6N9-1; also called ^YFPPDZ3c (isoA) E469A; PDZ3 E469A; source: E. coli BL21 (DE3) Rosetta, purified similarly as wild type
B6: YFP-Harmonin-a PDZ3c I476W (domain or fragment, human, UniProt Q9Y6N9-1 428-552, looked up)
chain: B3 chain with I49W, R119D
notes: Harmonin-a1 (USH1C), human, residues 428-552 of UniProt Q9Y6N9-1; also called ^YFPPDZ3c (isoA) I476W; source: E. coli BL21 (DE3) Rosetta, purified similarly as wild type
B7: Myosin 7a MF2 (domain or fragment, human, UniProt Q13402-1 1702-2215, looked up)
chain: TAEPEVRAKPYTLEEFSYDYFRPPPKHTLSRVMVSKARGKDRLWSHTREPLKQALLKKLLGSEELSQEACLAFIAVLKYMGDYPSKRTRSVNELTDQIFEGPLKAEPLKDEAYVQILKQLTDNHIRYSEERGWELLWLCTGLFPPSNILLPHVQRFLQSRKHCPLAIDCLQRLQKALRNGSRKYPPHLVEVEAIQHKTTQIFHKVYFPDDTDEAFEVESSTKAKDFCQNIATRLLLKSSEGFSLFVKIADKVLSVPENDFFFDFVRHLTDWIKKARPIKDGIVPSLTYQVFFMKKLWTTTVPGKDPMADSIFHYYQELPKYLRGYHKCTREEVLQLGALIYRVKFEEDKSYFPSIPKLLRELVPQDLIRQVSPDDWKRSIVAYFNKHAGKSKEEAKLAFLKLIFKWPTFGSAFFEVKQTTEPNFPEILLIAINKYGVSLIDPKTKDILTTHPFTKISNWSSGNTYFHITIGNLVRGSKLLCETSLGYKMDDLLTSYISQMLTAMSKQRGSRSGK
notes: Myosin 7a, human, C-terminal MyTH4-FERM domain (MF2), residues 1702-2215 of UniProt Q13402-1; Thrombin site of the vector replaced by an SSG linker; also called M7a MF2; Myo7a MF2; source: E. coli (BL21-AI, BL21 (DE3) Rosetta or BL21-Gold (DE3)), purified (Histrap, CaptoQ, gel filtration)

How the values were obtained:
Settings in all cases: both partners purified
[1] = target: T1, YFP-Full length (FL)-harmonin …; test: MST; as a1 but 150 mM NaCl (for FL-Harmonin-a); YFP-fused partner constant at 100 nM, non-fluorescent protein titrated
[2] = target: T1, YFP-Full length (FL)-harmonin …; test: as above; remark: listed apart in the source
YFP-Myosin 7b MF2 = target: T2, YFP-Myosin 7b MF2; test: MST; YFP-fused partner constant at 100 nM, non-fluorescent protein titrated (16 two-fold dilutions); 20 mM Hepes pH 7.0, 100 mM NaCl, 1 mM EGTA, 0.5 mM TCEP, 0.05% Tween 20; Monolith NT.115
Myosin 7a MF2 = target: B7; test: as above
Myosin 7b MF2 = target: B2; test: as above

| Binder | Kd (Myosin 7a MF2) [µM] | Kd (Myosin 7b MF2) [µM] | further results |
| --- | --- | --- | --- |
| B1 | – | – | Kd [1]: 3.4 ± 0.1 µM |
| B2 | – | – | Kd [2]: 2.05 ± 0.79 µM |
| B3 | – | – | Kd (YFP-Myosin 7b MF2): > 300 µM |
| B4 | 70.4 ± 7.2 | 38.1 ± 4.9 | – |
| B5 | 5.4 ± 1.5 | 6.11 ± 0.44 | – |
| B6 | 17.8 ± 1.1 | 18.1 ± 1.4 | – |
| B7 | – | – | Kd [2]: 2.36 µM |
